The text below walks through data of patent US20220332804A1 (CSL INNOVATION, published 2022).

Residue numbers refer to the chain shown, from its start.

Assay in all cases: SPR, antibody captured, C2 as analyte;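 also: biacore at 37 °C, anti-C2 mAbs held by immobilised goat anti-human IgG, C2 alanine or serine mutants injected, double-referenced sensorgrams fitted to a 1:1 kinetic or steady-state model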
Background: SPR reads the build-up and loss of mass on a sensor chip optically.

One assay concerns the target T1, human C2 Q447A (human, UniProt P06681 21-752).
T1 sequence: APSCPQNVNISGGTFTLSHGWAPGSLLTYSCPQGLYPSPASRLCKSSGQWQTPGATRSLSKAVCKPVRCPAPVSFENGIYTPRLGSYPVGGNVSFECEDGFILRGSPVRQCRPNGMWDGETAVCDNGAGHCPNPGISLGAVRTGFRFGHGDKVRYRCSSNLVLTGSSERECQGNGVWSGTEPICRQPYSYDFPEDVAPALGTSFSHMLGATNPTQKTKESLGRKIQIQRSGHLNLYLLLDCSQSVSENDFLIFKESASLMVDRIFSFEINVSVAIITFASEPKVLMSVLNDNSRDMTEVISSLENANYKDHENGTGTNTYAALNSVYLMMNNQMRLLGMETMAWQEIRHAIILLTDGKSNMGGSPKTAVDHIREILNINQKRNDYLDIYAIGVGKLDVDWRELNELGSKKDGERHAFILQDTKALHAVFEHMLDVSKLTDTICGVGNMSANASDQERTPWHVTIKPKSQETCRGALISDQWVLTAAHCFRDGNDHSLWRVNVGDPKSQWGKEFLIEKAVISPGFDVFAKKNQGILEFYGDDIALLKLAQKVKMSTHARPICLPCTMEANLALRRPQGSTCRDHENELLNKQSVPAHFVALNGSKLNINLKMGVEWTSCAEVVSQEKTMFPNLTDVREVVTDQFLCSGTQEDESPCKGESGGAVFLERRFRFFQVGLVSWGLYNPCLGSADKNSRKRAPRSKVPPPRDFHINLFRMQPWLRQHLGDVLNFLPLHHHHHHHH

A further assay has as its target T2, human C2 E324A (human, UniProt P06681 21-752).
T2 sequence: T1 sequence with E304A, A427Q

The next assay addresses T3, human C2 Y328A (human, UniProt P06681 21-752).
T3 sequence: T1 sequence with Y308A, A427Q

The target in another assay is T4, human C2 A470S (human, UniProt P06681 21-752).
T4 sequence: T1 sequence with A427Q, A450S

B1: RF16-242 (antibody, human IgG4 S228P, lambda, V domains shown)
VH: EVQLLQSGAEVKKPGESLKISCKGSGYSFTSYWIGWVRQMPGKGLEWMGIIYPGDSDTRYSPSFQGQVTISADKSISTAYLQWSSLKASDTAMYYCARRGHYGDYFDYWGQGTLVTVSS
VL: SYELTQPPSVSVSPGQTARITCSGDALPKKYAYWYHQKSGQAPVLVIYEDRRRPSEIPERFSGSSSGTMATLTITGAQVEDEGVYFCYSRDRAGNQRVFGGGTQLTVLG
notes: pH-dependent anti-C2 antibody from a phage display library
In the case of B1, the Kd with human C2 Q447A worked out at 26 nM; in the assay with human C2 E324A it was 10.7 nM; with human C2 Y328A, 45.4 nM; in the assay with human C2 A470S, 5 nM.

The term Kd denotes the concentration at which binding is half-saturated.
